# Starred links: 1 amine or outer side, 2 acyl side, 3 side chain; linkers in the order of their positions; H or OH if unused. Non-standard residues stand in square brackets, D forms with d. *: point of attachment. Trp(7-F) = N[C@@H](Cc1c[nH]c2c(F)cccc12)C(=O)O; Trp(7-Me) = Cc1cccc2c(C[C@H](N)C(=O)O)c[nH]c12; d(γGlu) = O=C(O)[C@@H](CCC(=O)[*:2])N[*:1]; C18 diacid = O=C(O)CCCCCCCCCCCCCCCCC(=O)*; γGlu = O=C(O)[C@H](CCC(=O)[*:2])N[*:1]; 2Nal = N[C@@H](Cc1ccc2ccccc2c1)C(=O)O; Palmitoyl = CCCCCCCCCCCCCCCC(=O)*; Nle = CCCC[C@H](N)C(=O)O; AEEA = NCCOCCOCC(=O)O; Sar = CNCC(=O)O
# Molecular target: human GRP receptor (human, UniProt P30550 1-384)
# Assay: cell-based or functional assay
# Chain of human GRP receptor (P30550 whole entry): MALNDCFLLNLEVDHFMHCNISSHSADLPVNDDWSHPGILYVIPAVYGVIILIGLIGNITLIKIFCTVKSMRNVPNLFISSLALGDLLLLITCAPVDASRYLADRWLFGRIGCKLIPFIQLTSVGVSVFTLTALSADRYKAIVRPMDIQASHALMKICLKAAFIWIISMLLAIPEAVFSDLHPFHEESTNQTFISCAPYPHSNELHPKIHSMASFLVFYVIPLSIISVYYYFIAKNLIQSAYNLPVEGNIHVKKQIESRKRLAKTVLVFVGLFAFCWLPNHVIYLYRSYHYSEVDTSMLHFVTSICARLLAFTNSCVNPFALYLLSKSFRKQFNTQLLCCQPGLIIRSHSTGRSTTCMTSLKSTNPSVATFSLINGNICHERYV
row,Binder,hIP1 GRPR EC50 [nM]
1,{C18 diacid}-[γGlu][AEEA][AEEA]GNH[2Nal]AV[dA]HL[Nle]-NH2 (SMILES CCCC[C@H](NC(=O)[C@H](CC(C)C)NC(=O)[C@H](Cc1c[nH]cn1)NC(=O)[C@@H](C)NC(=O)[C@@H](NC(=O)[C@H](C)NC(=O)[C@H](Cc1ccc2ccccc2c1)NC(=O)[C@H](Cc1c[nH]cn1)NC(=O)[C@H](CC(N)=O)NC(=O)CNC(=O)COCCOCCNC(=O)COCCOCCNC(=O)CC[C@H](NC(=O)CCCCCCCCCCCCCCCCC(=O)O)C(=O)O)C(C)C)C(N)=O) [Peptide 105],232
2,{C18 diacid}-[γGlu][AEEA][AEEA]GNHW[dA]V[dA]HL[Nle]-NH2 (SMILES CCCC[C@H](NC(=O)[C@H](CC(C)C)NC(=O)[C@H](Cc1c[nH]cn1)NC(=O)[C@@H](C)NC(=O)[C@@H](NC(=O)[C@@H](C)NC(=O)[C@H](Cc1c[nH]c2ccccc12)NC(=O)[C@H](Cc1c[nH]cn1)NC(=O)[C@H](CC(N)=O)NC(=O)CNC(=O)COCCOCCNC(=O)COCCOCCNC(=O)CC[C@H](NC(=O)CCCCCCCCCCCCCCCCC(=O)O)C(=O)O)C(C)C)C(N)=O) [Peptide 106],467
3,{C18 diacid}-[γGlu][AEEA][AEEA]RNHWAV[dA]HL[Nle][Sar]-NH2 (SMILES CCCC[C@H](NC(=O)[C@H](CC(C)C)NC(=O)[C@H](Cc1c[nH]cn1)NC(=O)[C@@H](C)NC(=O)[C@@H](NC(=O)[C@H](C)NC(=O)[C@H](Cc1c[nH]c2ccccc12)NC(=O)[C@H](Cc1c[nH]cn1)NC(=O)[C@H](CC(N)=O)NC(=O)[C@H](CCCNC(=N)N)NC(=O)COCCOCCNC(=O)COCCOCCNC(=O)CC[C@H](NC(=O)CCCCCCCCCCCCCCCCC(=O)O)C(=O)O)C(C)C)C(=O)N(C)CC(N)=O) [Peptide 100],99.9
4,{C18 diacid}-[γGlu][AEEA][AEEA]GNHWAV[dA]HL[Nle]-NH2 (SMILES CCCC[C@H](NC(=O)[C@H](CC(C)C)NC(=O)[C@H](Cc1c[nH]cn1)NC(=O)[C@@H](C)NC(=O)[C@@H](NC(=O)[C@H](C)NC(=O)[C@H](Cc1c[nH]c2ccccc12)NC(=O)[C@H](Cc1c[nH]cn1)NC(=O)[C@H](CC(N)=O)NC(=O)CNC(=O)COCCOCCNC(=O)COCCOCCNC(=O)CC[C@H](NC(=O)CCCCCCCCCCCCCCCCC(=O)O)C(=O)O)C(C)C)C(N)=O) [Peptide 97],8.91
5,{C18 diacid}-[γGlu][AEEA][AEEA][AEEA][AEEA]GNHWAV[dA]HL[Nle]-NH2 (SMILES CCCC[C@H](NC(=O)[C@H](CC(C)C)NC(=O)[C@H](Cc1c[nH]cn1)NC(=O)[C@@H](C)NC(=O)[C@@H](NC(=O)[C@H](C)NC(=O)[C@H](Cc1c[nH]c2ccccc12)NC(=O)[C@H](Cc1c[nH]cn1)NC(=O)[C@H](CC(N)=O)NC(=O)CNC(=O)COCCOCCNC(=O)COCCOCCNC(=O)COCCOCCNC(=O)COCCOCCNC(=O)CC[C@H](NC(=O)CCCCCCCCCCCCCCCCC(=O)O)C(=O)O)C(C)C)C(N)=O) [Peptide 98],11.2
6,{C18 diacid}-[γGlu][AEEA][AEEA][AEEA][AEEA]GNH[Trp(7-F)]AV[dA]HL[Nle]-NH2 (SMILES CCCC[C@H](NC(=O)[C@H](CC(C)C)NC(=O)[C@H](Cc1c[nH]cn1)NC(=O)[C@@H](C)NC(=O)[C@@H](NC(=O)[C@H](C)NC(=O)[C@H](Cc1c[nH]c2c(F)cccc12)NC(=O)[C@H](Cc1c[nH]cn1)NC(=O)[C@H](CC(N)=O)NC(=O)CNC(=O)COCCOCCNC(=O)COCCOCCNC(=O)COCCOCCNC(=O)COCCOCCNC(=O)CC[C@H](NC(=O)CCCCCCCCCCCCCCCCC(=O)O)C(=O)O)C(C)C)C(N)=O) [Peptide 110],12.4
7,{C18 diacid}-[γGlu][AEEA][AEEA]GNHHAV[dA]HL[Nle]-NH2 (SMILES CCCC[C@H](NC(=O)[C@H](CC(C)C)NC(=O)[C@H](Cc1c[nH]cn1)NC(=O)[C@@H](C)NC(=O)[C@@H](NC(=O)[C@H](C)NC(=O)[C@H](Cc1c[nH]cn1)NC(=O)[C@H](Cc1c[nH]cn1)NC(=O)[C@H](CC(N)=O)NC(=O)CNC(=O)COCCOCCNC(=O)COCCOCCNC(=O)CC[C@H](NC(=O)CCCCCCCCCCCCCCCCC(=O)O)C(=O)O)C(C)C)C(N)=O) [Peptide 107],> 10000
8,Palmitoyl-[d(γGlu)][AEEA][AEEA]GNHWAV[dA]HL[Nle]-NH2 (SMILES CCCCCCCCCCCCCCCC(=O)N[C@H](CCC(=O)NCCOCCOCC(=O)NCCOCCOCC(=O)NCC(=O)N[C@@H](CC(N)=O)C(=O)N[C@@H](Cc1c[nH]cn1)C(=O)N[C@@H](Cc1c[nH]c2ccccc12)C(=O)N[C@@H](C)C(=O)N[C@H](C(=O)N[C@H](C)C(=O)N[C@@H](Cc1c[nH]cn1)C(=O)N[C@@H](CC(C)C)C(=O)N[C@@H](CCCC)C(N)=O)C(C)C)C(=O)O) [Peptide 7],0.6

# The next lines start with the values.
row,hIP1 GRPR EC50 [nM],Binder
1,352,{C18 diacid}-[γGlu][AEEA][AEEA][AEEA][AEEA]GNH[Trp(7-F)]AV[dA]HL[Nle][Sar]-NH2 (SMILES CCCC[C@H](NC(=O)[C@H](CC(C)C)NC(=O)[C@H](Cc1c[nH]cn1)NC(=O)[C@@H](C)NC(=O)[C@@H](NC(=O)[C@H](C)NC(=O)[C@H](Cc1c[nH]c2c(F)cccc12)NC(=O)[C@H](Cc1c[nH]cn1)NC(=O)[C@H](CC(N)=O)NC(=O)CNC(=O)COCCOCCNC(=O)COCCOCCNC(=O)COCCOCCNC(=O)COCCOCCNC(=O)CC[C@H](NC(=O)CCCCCCCCCCCCCCCCC(=O)O)C(=O)O)C(C)C)C(=O)N(C)CC(N)=O) [Peptide 101]
2,221,{C18 diacid}-[γGlu][AEEA][AEEA]GNH[Trp(7-Me)]AV[dA]HL[Nle][Sar]-NH2 (SMILES CCCC[C@H](NC(=O)[C@H](CC(C)C)NC(=O)[C@H](Cc1c[nH]cn1)NC(=O)[C@@H](C)NC(=O)[C@@H](NC(=O)[C@H](C)NC(=O)[C@H](Cc1c[nH]c2c(C)cccc12)NC(=O)[C@H](Cc1c[nH]cn1)NC(=O)[C@H](CC(N)=O)NC(=O)CNC(=O)COCCOCCNC(=O)COCCOCCNC(=O)CC[C@H](NC(=O)CCCCCCCCCCCCCCCCC(=O)O)C(=O)O)C(C)C)C(=O)N(C)CC(N)=O) [Peptide 104]
3,345,{C18 diacid}-[γGlu][AEEA][AEEA][AEEA][AEEA]GNH[Trp(7-Me)]AV[dA]HL[Nle][Sar]-NH2 (SMILES CCCC[C@H](NC(=O)[C@H](CC(C)C)NC(=O)[C@H](Cc1c[nH]cn1)NC(=O)[C@@H](C)NC(=O)[C@@H](NC(=O)[C@H](C)NC(=O)[C@H](Cc1c[nH]c2c(C)cccc12)NC(=O)[C@H](Cc1c[nH]cn1)NC(=O)[C@H](CC(N)=O)NC(=O)CNC(=O)COCCOCCNC(=O)COCCOCCNC(=O)COCCOCCNC(=O)COCCOCCNC(=O)CC[C@H](NC(=O)CCCCCCCCCCCCCCCCC(=O)O)C(=O)O)C(C)C)C(=O)N(C)CC(N)=O) [Peptide 103]
4,181,{C18 diacid}-[γGlu][AEEA][AEEA]GNH[Trp(7-F)]AV[dA]HL[Nle][Sar]-NH2 (SMILES CCCC[C@H](NC(=O)[C@H](CC(C)C)NC(=O)[C@H](Cc1c[nH]cn1)NC(=O)[C@@H](C)NC(=O)[C@@H](NC(=O)[C@H](C)NC(=O)[C@H](Cc1c[nH]c2c(F)cccc12)NC(=O)[C@H](Cc1c[nH]cn1)NC(=O)[C@H](CC(N)=O)NC(=O)CNC(=O)COCCOCCNC(=O)COCCOCCNC(=O)CC[C@H](NC(=O)CCCCCCCCCCCCCCCCC(=O)O)C(=O)O)C(C)C)C(=O)N(C)CC(N)=O) [Peptide 102]
5,18.7,{C18 diacid}-[γGlu][AEEA][AEEA][AEEA][AEEA]GRH[Trp(7-F)]AV[dA]HL[Nle]-NH2 (SMILES CCCC[C@H](NC(=O)[C@H](CC(C)C)NC(=O)[C@H](Cc1c[nH]cn1)NC(=O)[C@@H](C)NC(=O)[C@@H](NC(=O)[C@H](C)NC(=O)[C@H](Cc1c[nH]c2c(F)cccc12)NC(=O)[C@H](Cc1c[nH]cn1)NC(=O)[C@H](CCCNC(=N)N)NC(=O)CNC(=O)COCCOCCNC(=O)COCCOCCNC(=O)COCCOCCNC(=O)COCCOCCNC(=O)CC[C@H](NC(=O)CCCCCCCCCCCCCCCCC(=O)O)C(=O)O)C(C)C)C(N)=O) [Peptide 109]
6,> 10000,{C18 diacid}-[γGlu][AEEA][AEEA]GNHRAV[dA]HL[Nle]-NH2 (SMILES CCCC[C@H](NC(=O)[C@H](CC(C)C)NC(=O)[C@H](Cc1c[nH]cn1)NC(=O)[C@@H](C)NC(=O)[C@@H](NC(=O)[C@H](C)NC(=O)[C@H](CCCNC(=N)N)NC(=O)[C@H](Cc1c[nH]cn1)NC(=O)[C@H](CC(N)=O)NC(=O)CNC(=O)COCCOCCNC(=O)COCCOCCNC(=O)CC[C@H](NC(=O)CCCCCCCCCCCCCCCCC(=O)O)C(=O)O)C(C)C)C(N)=O) [Peptide 108]
7,> 10000,{C18 diacid}-[γGlu][AEEA][AEEA]GNH[2Nal]AV[dA]HL[Nle][Sar]-NH2 (SMILES CCCC[C@H](NC(=O)[C@H](CC(C)C)NC(=O)[C@H](Cc1c[nH]cn1)NC(=O)[C@@H](C)NC(=O)[C@@H](NC(=O)[C@H](C)NC(=O)[C@H](Cc1ccc2ccccc2c1)NC(=O)[C@H](Cc1c[nH]cn1)NC(=O)[C@H](CC(N)=O)NC(=O)CNC(=O)COCCOCCNC(=O)COCCOCCNC(=O)CC[C@H](NC(=O)CCCCCCCCCCCCCCCCC(=O)O)C(=O)O)C(C)C)C(=O)N(C)CC(N)=O) [Peptide 99]
8,1.7,EXXGNHWAVGHLM (Palmitoyl-D-γGlu-OEG-OEG-Gly-Asn-His-Trp-Ala-Val-Gly-His-Leu-Met-NH2) [Peptide 8]
